According to patent publication US20190023770A1 (Genentech, published 2019):

B1: monoclonal antibody 36.89 (antibody, V domains shown)
VH: QVQLVQSGAELKRPGASVKVSCKTSGYSFNNYGINWVRQAPGQGLEWMGWISAYTGNTHYAKNFEGRVTLTTDTSTSTAYMEVRSLRSDDSAVYFCARAMIQGVVTLYLRPGDYWGQGTLVTVSS
VL: DIVMTQSPSTLSASVGDRVTITCRASQSIGNWLAWYQQKPGKAPKLLIYKVSTLESGVPSRFSGSGSGTEFTLTINSLQPDDFATYYCQRYTSNSQGFTFGQGTKLEIK
B2: monoclonal antibody mAb23 06C2 (antibody, V domains shown)
VH: QVQLQESGPGLVKPSETLSLTCTVSGGLIGTGSYYWGWIRQTPGKGMEWIGSISYSGSTYYHPSLKSRVTISDDTSKNQLFLKLRSVTAADTAQYYCARYNWGIRYFDFWGRGTLVTVSS
VL: DIQLTQSPLSPPVTLGQPASISCRSSQSLLYTDGFTYLSWYHQRPGQSPRRLIYKISNRDSGVPDRFSGSGSGTDFTLKISRVEAEDVGVYYCMQATHWPLTFGEGTKVEIK
B3: monoclonal antibody mAb9 01F3 (antibody, V domains shown)
VH: QVQLVQSGAEVKQPGASVKVSCKASGYTFNAYYIHWVRQAPGQGLEWMGWINPNFGGTHYARKFQGRVTMTRDASINTAYMELDRLISDDTAVYYCVRWRAAAVIMDQFYKMDVWGQGTLVTVSS
VL: SSELTQPPSASGTPGQRVTISCSGSTSNIGYNPVSWYQQVPGTAPKLLIYSNTERPSGVPDRFSGSKSGTSASLAISGLQSEDEADYYCAAWDDTLNGPVFGGGTKVTVL

target: recombinant hemagglutinin H1 from influenza A virus A/NWS/1933 (influenza A virus A/NWS/1933 (printed …, UniProt P03454 18-528))

Row | Binder | EC50
1 | B1 | > 200 nM
2 | B2 | > 200 nM
3 | B3 | > 200 nM

target: recombinant hemagglutinin H3 from influenza A virus A/Hong Kong/8/1968 (influenza A virus A/Hong Kong/8/1968, UniProt Q91MA7 17-530)

Row | Binder | EC50
4 | B1 | 1.32 nM
5 | B2 | 1.84 nM
6 | B3 | 8.42 nM
